Data set [1] has as its system homoserine transsuccinylase. The data set is described as follows: Homoserine transsuccinylase activity test (Lee et al.), 5,5'-dithiobis(2-nitrobenzoic acid), absorption at 412 nm, with and without SAM. Format: biochemical, E. coli. The note with it: for Activity (U/mg): cell extract, 3 mM homoserine, 0.3 mM succinyl-CoA, 50 mM potassium phosphate buffer pH 7.5; for Activity (%) in the presence of 1 mM SAM: activity in the absence of SAM corresponds to 100%; for Ki: SAM (Cl salt, Sigma) as inhibitor. As to the method:
In order to determine the sensitivity of the activity of the different homoserine transsuccinylases to SAM, it is possible, for example, to carry out an activity test as described in Lee L. W. et al., J. Biol. Chem. 241, 5479-5480 (1966). In this method, the enzyme extract is incubated with homoserine and succinyl-CoA. After various times, a part of the test assay sample is stopped by adding it to a mixture of ethanol, water, and 5,5′-dithiobis(2-nitrobenzoic acid). The absorption is determined photometrically at 412 nm. The described test is suitable, for example, for determining the sensitivity of the homoserine transsuccinylases to SAM.
The influence of SAM on the activities of the different homoserine transsuccinylases was determined by quantifying the activity in the presence of different concentrations of SAM (Cl salt, Sigma). The cell extracts were grown and prepared as described in Example 3. The activity test was carried out as described in Lee L. W. et al., J. Biol. Chem. 241, 5479-5480 (1966), with the enzyme extract being incubated with 50 mM potassium phosphate buffer, pH 7.5, 3 mM homoserine and 0.3 mM succinyl-CoA. After various times, 100 μl volumes of test mixture were stopped by adding them in each case to a mixture of 400 μl of ethanol, 400 μl of water and 100 μl of 10 mM 5,5′-dithiobis(2-nitrobenzoic acid). After the resulting mixture had been incubated at room temperature for 5 minutes, the absorption was determined photometrically at 412 nm. After the protein concentration had been determined, the enzyme activity was calculated using the extinction coefficient. The Ki was determined as a measure of the ability of SAM to inhibit the activity.

Data set [2] has as its system homoserine transsuccinylase. The data set can be described thus: Homoserine transsuccinylase enzyme test using cell extracts, decrease in extinction at 232 nm, with and without L-methionine. The note with it: for Activity (U/mg): cell extract of E. coli W3110 transformants, 1 mM homoserine, 0.1 mM succinyl-CoA, 50 mM Tris/Cl pH 7.6; for Activity (%) in the presence of 1 mM L-methionine: activity in the absence of L-methionine corresponds to 100%; for Ki: concentration of L-methionine at which activity is only 50% of activity in its absence. Format: biochemical, E. coli. The text has this: Any method which enables the activity of the enzyme to be determined in the presence of L-methionine or SAM can be used for determining the sensitivity of the homoserine transsuccinylase to L-methionine and/or SAM. For example, the homoserine transsuccinylase activity can be determined by following the method described by Kredich and Tomkins for determining the activity of serine acetyltransferases (Kredich N. M. and Tomkins G. M., J. Biol. Chem. 241, 4955-4965 (1966)). The enzyme activity is measured in an assay sample which contains homoserine and succinyl-CoA. The reaction is started by adding enzyme and monitored in a spectrophotometer by way of the decrease in the extinction at 232 nm which results from cleavage of the thioester bond in the succinyl-coenzyme A. The described test is suitable for determining the sensitivity of the homoserine transsuccinylases to methionine. The inhibition of homoserine transsuccinylase activity is tested in the presence of different concentrations of L-methionine in the reaction mixture.
The activity, and the influence of L-methionine on the activity, of the different homoserine transsuccinylases were determined by means of an enzyme test using cell extracts in which the respective proteins had been produced. For this, the corresponding plasmids, encoding altered homoserine transsuccinylases, were introduced, by transformation, into the E. coli strain W3110 (ATCC 27325) using methods known to the skilled person. The transformation mixture was spread on LB-tetracycline agar plates (10 g of tryptone/l, 5 g of yeast extract/l, 5 g of NaCl/l, 15 g of agar/l and 15 mg of tetracycline/l) and incubated at 37° C. overnight. The resulting transformants were grown in SM1 medium (for 1 l of medium: CaCl2×2H2O, 0.0147 g, MgSO4×7H2O, 0.3 g, Na2MoO4×2H2O, 0.15 mg, H3BO3, 2.5 mg, CoCl2×6H2O, 0.7 mg, CuSO4×5H2O, 0.25 mg, MnCl2×4H2O, 1.6 mg, ZnSO4×7H2O, 0.3 mg, KH2PO4, 3.0 g, K2HPO4, 12.0 g, (NH4)2SO4, 5 g, NaCl, 0.6 g, FeSO4×7H2O, 0.002 g, Na3-citrate×2H2O, 1 g, glucose, 5 g, tryptone, 1 g, yeast extract, 0.5 g), centrifuged down at an absorption of approx. 0.8 at 600 nm, washed in 50 mM Tris pH 7.5, and centrifuged down once again. The cells were resuspended in 50 mM Tris/Cl, pH 7.5, 2 mM dithiothreitol, 0.5 mM phenylmethylsulfonyl fluoride and disrupted in a French press. The supernatant from a further centrifugation was used as the enzyme extract in the test. The enzyme activity was determined, in a mixture containing 50 mM Tris/Cl, pH 7.6, 1 mM homoserine and 0.1 mM succinyl-CoA, by photometrically quantifying, by means of the decrease in the extinction at 232 nm, the coenzyme A formed in the reaction, following the method described by Kredich and Tomkins for determining the activity of serine acetyltransferases (Kredich N. M. and Tomkins G. M., J. Biol. Chem. 241, 4955-4965 (1966)). The effect of added L-methionine on the activity was determined and the inhibitability was quantified as a Ki value. The Ki which is determined is the concentration of L-methionine at which the activity of the homoserine transsuccinylase is only 50% of its activity in the absence of L-methionine.

B1: pSLmetAN: MetA variant with Asn instead of Asp at position 101 (protein, UniProt P07623 2-309, looked up, variant D101N)
Homoserine …: PIRVPDELPAVNFLREENVFVMTTSRASGQEIRPLKVLILNLMPKKIETENQFLRLLSNSPLQVDIQLLRIDSRESRNTPAEHLNNFYCNFEDIQDQNFNGLIVTGAPLGLVEFNDVAYWPQIKQVLEWSKDHVTSTLFVCWAVQAALNILYGIPKQTRTEKLSGVYEHHILHPHALLTRGFDDSFLAPHSRYADFPAALIRDYTDLEILAETEEGDAYLFASKDKRIAFVTGHPEYDAQTLAQEFFRDVEAGLDPDVPYNYFPHNDPQNTPRASWRSHGNLLFTNWLNYYVYQITPYDLRHMNPTLD
In the case of B1, the results for the “Activity (U/mg)” value in data set [1] and in data set [2] were 0.30 U/mg and 0.050 U/mg, respectively.

B2: pSLmetAH: MetA variant with His instead of Asp at position 101 (protein, UniProt P07623 2-309, looked up, variant D101H)
Homoserine …: PIRVPDELPAVNFLREENVFVMTTSRASGQEIRPLKVLILNLMPKKIETENQFLRLLSNSPLQVDIQLLRIDSRESRNTPAEHLNNFYCNFEDIQDQNFHGLIVTGAPLGLVEFNDVAYWPQIKQVLEWSKDHVTSTLFVCWAVQAALNILYGIPKQTRTEKLSGVYEHHILHPHALLTRGFDDSFLAPHSRYADFPAALIRDYTDLEILAETEEGDAYLFASKDKRIAFVTGHPEYDAQTLAQEFFRDVEAGLDPDVPYNYFPHNDPQNTPRASWRSHGNLLFTNWLNYYVYQITPYDLRHMNPTLD
Consider B2, for which, in data set [1], the “Activity (%) in the presence of 1 mM SAM” value is reported as 93%, the Ki worked out at 16 mM and the “Activity (U/mg)” value turned out to be 0.27 U/mg. In data set [2], the “Activity (%) in the presence of 1 mM L-methionine” value is 90%; the “Activity (U/mg)” value was 0.045 U/mg; the affinity, expressed as Ki, was 12 mM.

B3: pSLmetAC: MetA variant with Cys instead of Asp at position 101 (protein, UniProt P07623 2-309, looked up, variant D101C)
Homoserine …: PIRVPDELPAVNFLREENVFVMTTSRASGQEIRPLKVLILNLMPKKIETENQFLRLLSNSPLQVDIQLLRIDSRESRNTPAEHLNNFYCNFEDIQDQNFCGLIVTGAPLGLVEFNDVAYWPQIKQVLEWSKDHVTSTLFVCWAVQAALNILYGIPKQTRTEKLSGVYEHHILHPHALLTRGFDDSFLAPHSRYADFPAALIRDYTDLEILAETEEGDAYLFASKDKRIAFVTGHPEYDAQTLAQEFFRDVEAGLDPDVPYNYFPHNDPQNTPRASWRSHGNLLFTNWLNYYVYQITPYDLRHMNPTLD
For B3, in data set [1], the “Activity (%) in the presence of 1 mM SAM” value was found to be 91%, the inhibitory constant (Ki) stood at 7 mM and the “Activity (U/mg)” value is 0.51 U/mg. Moreover, in data set [2], the “Activity (%) in the presence of 1 mM L-methionine” value worked out at 92%, the “Activity (U/mg)” value worked out at 0.084 U/mg and the Ki came to 5 mM.

B4: pSLmetAS: MetA variant with Ser instead of Asp at position 101 (protein, UniProt P07623 2-309, looked up, variant D101S)
Homoserine …: PIRVPDELPAVNFLREENVFVMTTSRASGQEIRPLKVLILNLMPKKIETENQFLRLLSNSPLQVDIQLLRIDSRESRNTPAEHLNNFYCNFEDIQDQNFSGLIVTGAPLGLVEFNDVAYWPQIKQVLEWSKDHVTSTLFVCWAVQAALNILYGIPKQTRTEKLSGVYEHHILHPHALLTRGFDDSFLAPHSRYADFPAALIRDYTDLEILAETEEGDAYLFASKDKRIAFVTGHPEYDAQTLAQEFFRDVEAGLDPDVPYNYFPHNDPQNTPRASWRSHGNLLFTNWLNYYVYQITPYDLRHMNPTLD
On to B4, for which, in data set [1], the Ki worked out at 10 mM and the “Activity (U/mg)” value is reported as 0.15 U/mg. In data set [2], the “Activity (%) in the presence of 1 mM L-methionine” value is 89%, the “Activity (U/mg)” value is 0.027 U/mg and affinity was put at a Ki of 7.5 mM.

The values are drawn from patent US7371551B1, “Feedback-resistant homoserine transsuccinylases” (priority 2002, dated 2008).
